Laboratory results published in patent US20120094909A1 (Bristol-Myers Squibb, published 2012).
“And” between values parts separate entries of the source, which are not always exact repeats. Equal entries are not always repeated. Where two headings read alike, the source gives them in different places.

Assays:
[1] = biological target: T1, human serum albumin (human, UniProt P02768 25-609); assay: SPR (Biacore), albumin captured on chip, SABA in flow
T1 construct: also called HSA
Procedure: (§1) The kinetics of selected SABA clones purified from HTPP and/or midscaled material described in Examples 5A and 5B were determined by capturing the respective serum albumin (HSA/RhSA/MuSA) on the surface of a Biasensor CMS chip and flowing a concentration series of SABAs over both the reference flow cell and the captured albumins. In addition, binding to albumin was carried out under various pH conditions ranging from pH 5.5 to pH 7.4.

[2] = biological target: T2, rhesus serum albumin (rhesus, UniProt Q28522 17-600); assay: as above
T2 construct: also called RhSA
Procedure: as §1

[3] = biological target: T1, human serum albumin; assay: SPR (Biacore), albumin captured on chip, SABA in flow; n = 6
Procedure: as §1

[4] = biological target: T1, human serum albumin; assay: SPR (Biacore), albumin captured on chip, SABA in flow; n = 4
Procedure: as §1

[5] = biological target: T3, human serum albumin (human, UniProt P02768 25-609); assay: kinetic analysis, HBS-P buffer
T3 construct: also called HSA

[6] = biological target: T4, rhesus serum albumin (rhesus, UniProt Q28522 17-600); assay: kinetic analysis, HBS-P buffer
T4 construct: also called RhSA

[7] = biological target: T5, murine serum albumin (mouse, UniProt P07724 25-608); assay: kinetic analysis and direct binding ELISA (Table 18, FIG. 27)
T5 construct: also called MuSA; mouse serum albumin

[8] = biological target: rat serum albumin (rat, UniProt P02770 25-608); assay: as above
[9] = biological target: T6, human PCSK9 (proprotein convertase subtilisin kexin type 9) (human, UniProt Q8NBP7 31-692); assay: ITC, 37 C
T6 construct: immobilized directly (ProteOn), biotinylated (Octet) or in solution, according to the assay; also called hPCSK9; PCSK9-AF647 (labelled form)

[10] = biological target: T6, human PCSK9 (proprotein convertase …); assay: cell-based or functional assay
[11] = biological target: T6, human PCSK9 (proprotein convertase …); assay: SPR (ProteOn), 25 C
[12] = biological target: T6, human PCSK9 (proprotein convertase …); assay: BLI (Octet Red), 37 C
Procedure: Tips were then immersed into a buffer-only well for observation of Adnectin dissociation. Experiments were performed in a temperature controlled environment at either 25 or 37° C., and the oscillation speed was set at 1500 rpm.
Binding interaction analysis was performed using proprietary software from Fortebio (Fortebio Data Analysis Software version 6.3.0.36). Global fits were performed for all samples, using a 1:1 binding model. The nature of these global fits constrained all values of concentration to a single pair of association and dissociation rates that were themselves constrained to each other. Affinities (KD), association and dissociation rates were averaged over the various loading levels used in the analysis.

[13] = biological target: T6, human PCSK9 (proprotein convertase …); assay: cell-based or functional assay; remark: listed apart in the source
[14] = biological target: T6, human PCSK9 (proprotein convertase …); assay: PCSK9:EGFA FRET, competitor EGFA peptide
[15] = biological target: T6, human PCSK9 (proprotein convertase …); assay: SPR (ProteOn), PCSK9 immobilized directly, 25 C
Procedure: (§2) The binding characteristics were characterized by Surface Plasmon Resonance (SPR). […] This allowed kinetic determination in the absence of regeneration. […] Evaluation of the kinetic parameters was performed using the Langmuir interaction model and constant parameter fitting with the ProteOn Manager software.

[16] = biological target: T7, human PCSK9 (proprotein convertase subtilisin kexin type 9) (human, UniProt Q8NBP7 31-692); assay: SPR ProteOn, 25 C
T7 construct: Directly immobilized (SPR ProteOn), biotinylated (BLI), or in solution, depending on the assay; also called hPCSK9
Procedure: as §2

[17] = biological target: T8, cynomolgus monkey PCSK9 (cynomolgus monkey, UniProt A0A7N9D9N8 150-747); assay: SPR ProteOn, 25 C
Procedure: as §2

[18] = biological target: T7, human PCSK9 (proprotein convertase …); assay: cell-based or functional assay; remark: listed apart in the source
[19] = biological target: T7, human PCSK9 (proprotein convertase …); assay: FRET, competitor ATI000972
Text: (§3) Table 11 summarizes the overall data from these three FRET assays.

[20] = biological target: T7, human PCSK9 (proprotein convertase …); assay: FRET, competitor EGFA peptide
Text: as §3

[21] = biological target: T8, cynomolgus monkey PCSK9; assay: FRET, competitor EGFA peptide
Text: as §3

[22] = biological target: T7, human PCSK9 (proprotein convertase …); assay: SPR ProteOn, PCSK9 immobilized, 25 C
Procedure: as §2

[23] = biological target: T8, cynomolgus monkey PCSK9; assay: SPR ProteOn, PCSK9 immobilized, 25 C
Procedure: as §2

[24] = biological target: T7, human PCSK9 (proprotein convertase …); assay: BLI, biotinylated hPCSK9 on sensor tips
[25] = biological target: T7, human PCSK9 (proprotein convertase …); assay: FRET direct binding, anti-his6 antibody
Text: as §3

[26] = biological target: T9, cynomolgus monkey PCSK9 (cynomolgus monkey, UniProt A0A7N9D9N8 150-747); assay: SPR ProteOn, 25 C
T9 construct: also called cyno PCSK9; cPCSK9
Procedure: as §2

[27] = biological target: T9, cynomolgus monkey PCSK9; assay: FRET, competitor EGFA peptide
Text: as §3

[28] = biological target: T9, cynomolgus monkey PCSK9; assay: SPR ProteOn, PCSK9 immobilized, 25 C
Procedure: as §2

[29] = biological target: T7, human PCSK9 (proprotein convertase …); assay: ITC, 37 C
Procedure: Solution phase binding was measured in 25 mM HEPES, pH 7.41, 150 mM NaCl at 37° C.

[30] = biological target: T7, human PCSK9 (proprotein convertase …); assay: KinExA, solution phase
Procedure: Due to technical limitations, the lowest concentration of Adnectins that could be tested was 1 nM.

[31] = biological target: T7, human PCSK9 (proprotein convertase …); assay: SPR Biacore, ATI-1081 captured on anti-His antibody, hPCSK9 in flow, 25 C
Procedure: The binding characteristics were characterized by Surface Plasmon Resonance (SPR). […] […] Duplicate experiments for PRD460 were performed on different days. Kinetic determinations were performed at 25° C. Evaluation of the kinetic parameters was performed using the 1:1 Binding algorithm on the BIACORE® Evaluation software.

[32] = biological target: T2, rhesus serum albumin; assay: SPR (Biacore), albumin captured on chip, SABA in flow; n = 4
Procedure: as §1

[33] = biological target: T1, human serum albumin; assay: SPR (Biacore), albumin captured on chip, SABA in flow; n = 9
Procedure: as §1

B1: SABA2.1 (designed binder)
chain: MGVSDVPRDLEVVAATPTSLLISWPKYDKTGHYYRITYGETGGNSPVQEFTVPTRQTTATISGLKPGVDYTITVYAVSKDDYYPHEHRPISINYRTEIDKPSQHHHHHH
- koff [1]: 0.000171 s⁻¹
- Kd [2]: 63.6 nM
- koff [2]: 0.000442 s⁻¹
- Kd [3]: 33.8 nM

B2: SABA4.1 (designed binder)
chain: MGVSDVPRDLEMVAATPTSLLISWEDDSYYSRYYRITYGETGGNSPVQEFTVPSDLYTATISGLKPGVDYTITVYAVTYDVTDLIMHEPISINYRTEIDKPSQHHHHHH
notes: Carries a scaffold mutation; SABA5 is the scaffold-perfect version
- koff [1]: 0.000782 s⁻¹
- Kd [2]: > 1000 nM
- koff [2]: 0.00383 s⁻¹
- Kd [4]: 412 nM

B3: SABA1.2 (designed binder)
chain: MGVSDVPRDLEVVAATPTSLLISWHSYYEQNSYYRITYGETGGNSPVQEFTVPYSQTTATISGLKPGVDYTITVYAVYGSKYYYPISINYRTEIEDEDEDEDED
notes: core 1 10Fn3 with (ED)5 extension
- fold increase in affinity at 37 C against 25 C [5]: ~2 fold
- affinity at 37 C relative to 25 C [6]: 0.5 fold
- binding result [7]: no binding (tested: up to 1 µM)
- binding result [8]: no binding (tested: up to 1 µM)

B4: 1459D05 (designed binder)
chain: MGVSDVPRDLEVVAATPTSLLISWPPPSHGYGYYRITYGETGGNSPVQEFTVPPGKGTATISGLKPGVDYTITVYAVEYPYKHSGYYHRPISINYRTEIDKPSQHHHHHH
notes: also called ATI000891; ATI-891
- Kd [9]: 26 nM
- DiI-LDL uptake in HepG2 cells, EC50 [10]: 190 nM
- percentage of PCSK9 inhibition at 75 nM [10]: 66.8%
- Kd [11]: 1.58 nM
- Kd [12]: 14.4 nM
- LDLR Depletion (% inhibition at 75 nM) [13]: 66.8%
- LDLR Depletion EC50 [13]: > 200 nM
- EC50 [14]: 4 nM
- Kd [15]: 1.6 nM

B5: 1922G04 (designed binder)
chain: MGVSDVPRDLEVVAATPTSLLISWRPPSHAYGYYRITYGETGGNSPVQEFTVPIGKGTATISGLKPGVDYTITVYAVEYPWKGSGYYHRPISINYRTEIDKPSQHHHHHH
notes: Anti-PCSK9 Adnectin, His6-tagged; also called ATI001057; ATI-1057
- Kd [16]: 0.09 nM
- Kd [17]: 15 nM
- LDLR Depletion EC50 [18]: 10 nM
- IC50 [19]: 2 nM
- EC50 [20]: 1.2 nM
- IC50 [20]: 1.2 nM
- EC50 [21]: 26.6 nM
- Kd [22]: 0.094 nM
- koff [22]: 5.08e-05 s⁻¹
- kon [22]: 541000 M⁻¹ s⁻¹
- Kd [23]: 15 nM
- koff [23]: 0.007 s⁻¹
- kon [23]: 465000 M⁻¹ s⁻¹
- Kd [24]: 0.255 nM
- koff [24]: 0.00014 s⁻¹
- kon [24]: 532000 M⁻¹ s⁻¹
- EC50 [25]: 2.5 nM

B6: 2011H05 (designed binder)
chain: MGVSDVPRDLEVVAATPTSLLISWVPSSHAYGYYRITYGETGGNSPVQEFTVPVGVGTATISGLKPGVDYTITVYAVEYAFEGAGYYHRPISINYRTEIDKPSQHHHHHH
notes: Anti-PCSK9 Adnectin, His6-tagged; also called ATI001091
- Kd [16]: 0.08 nM
- Kd [17]: 23.1 nM
- LDLR Depletion EC50 [18]: 12 nM
- IC50 [19]: 1.4 nM
- EC50 [20]: 2.7 nM
- IC50 [20]: 2.7 nM
- EC50 [21]: 17.2 nM
- Kd [22]: 0.079 nM
- koff [22]: 9.76e-06 s⁻¹
- kon [22]: 118000 M⁻¹ s⁻¹
- Kd [23]: 23.1 nM
- koff [23]: 0.0044 s⁻¹
- kon [23]: 190000 M⁻¹ s⁻¹
- Kd [24]: 0.293 nM
- koff [24]: 8.2e-05 s⁻¹
- kon [24]: 286000 M⁻¹ s⁻¹
- EC50 [25]: 2 nM

B7: 2012A04 (designed binder)
chain: MGVSDVPRDLEVVAATPTSLLISWRPPSNGHGYYRITYGETGGNSPVQEFTVPVNEGTATISGLKPGVDYTITVYAVEFPFKWSGYYHRPISINYRTEIDKPSQHHHHHH
notes: Anti-PCSK9 Adnectin, His6-tagged
- Kd [16]: 0.25 nM
- Kd [26]: 24.3 nM
- LDLR Depletion EC50 [18]: 12 nM
- IC50 [19]: 1.2 nM
- EC50 [20]: 2.1 nM
- IC50 [20]: 2.1 nM
- EC50 [27]: 70.3 nM
- Kd [22]: 0.251 nM
- koff [22]: 6.47e-05 s⁻¹
- kon [22]: 259000 M⁻¹ s⁻¹
- Kd [28]: 24.3 nM
- koff [28]: 0.00475 s⁻¹
- kon [28]: 195000 M⁻¹ s⁻¹
- EC50 [25]: 1.4 nM

B8: 2013E01 (designed binder)
chain: MGVSDVPRDLEVVAATPTSLLISWVPPSDDYGYYRITYGETGGNSPVQEFTVPIGKGTATISGLKPGVDYTITVYAVEFPWPHAGYYHRPISINYRTEIDKPSQHHHHHH
notes: Anti-PCSK9 Adnectin, His6-tagged, unmodified (not PEGylated); also called ATI001081
- Ka [29]: 7.1e+08 M⁻¹
- Kd [29]: 1.4 nM
- Stoichiometry (N) [29]: 0.926
- ΔH [29]: -26.6 kcal/mol
- ΔS [29]: -45.4 cal/mol °C
- Kd [16]: 0.29 nM
- Kd [26]: 8.1 nM
- Kd [30]: 0.0695 nM
- LDLR Depletion EC50 [18]: 10 nM
- IC50 [19]: 1.8 nM
- EC50 [20]: 1.6 nM
- IC50 [20]: 1.6 nM
- EC50 [27]: 12.5 nM
- Kd [28]: 8.1 nM
- koff [28]: 0.00177 s⁻¹
- kon [28]: 219000 M⁻¹ s⁻¹
- koff [24]: 0.000837 s⁻¹ and 0.000349 s⁻¹
- kon [24]: 546000 M⁻¹ s⁻¹ and 829000 M⁻¹ s⁻¹
- EC50 [25]: 0.9 nM
- Kd [31]: 6.7 nM
- koff [31]: 0.000245 s⁻¹
- kon [31]: 36500 M⁻¹ s⁻¹

B9: SABA1.1 (designed binder)
chain: MGVSDVPRDLEVVAATPTSLLISWHSYYEQNSYYRITYGETGGNSPVQEFTVPYSQTTATISGLKPGVDYTITVYAVYGSKYYYPISINYRTEIDKPSQHHHHHH
notes: also called clone 1318H04
- koff [1]: 0.000457 s⁻¹
- koff [2]: 0.00545 s⁻¹
- Kd [32]: 778 nM
- Kd [33]: 47.2 nM
